Measured values as given in patent publication US20140112915A1 (Novartis, published 2014).
Like-named read-outs stand apart in the source and are kept apart here.

T1: Recombinant human IL-18 (human, UniProt Q14116 37-193)
T1 construct: Used unlabeled or biotinylated depending on the assay step; also called Hu IL-18; hr IL-18
T1 sequence: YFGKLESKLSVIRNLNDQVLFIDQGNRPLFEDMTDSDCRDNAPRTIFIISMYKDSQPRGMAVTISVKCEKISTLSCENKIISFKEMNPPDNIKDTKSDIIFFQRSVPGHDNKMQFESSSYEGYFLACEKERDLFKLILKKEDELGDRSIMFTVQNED

T2: IL-18/IL-18BP complex (human, UniProt O95998 31-194, biotinylated in the first ELISA setup, unbiotinylated in the second)
T2 construct: also called biotinylated IL-18/IL18-BP complex; not shown: human IgG1 Fc tag
T2 sequence 1: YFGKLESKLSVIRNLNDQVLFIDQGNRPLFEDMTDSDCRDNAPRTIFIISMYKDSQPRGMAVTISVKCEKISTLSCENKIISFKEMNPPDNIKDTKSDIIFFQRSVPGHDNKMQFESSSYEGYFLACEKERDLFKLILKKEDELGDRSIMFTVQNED
T2 sequence 2: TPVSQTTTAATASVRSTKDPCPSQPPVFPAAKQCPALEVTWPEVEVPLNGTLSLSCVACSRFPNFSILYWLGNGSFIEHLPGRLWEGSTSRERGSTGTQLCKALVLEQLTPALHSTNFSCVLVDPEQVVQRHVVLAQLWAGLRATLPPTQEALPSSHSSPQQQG

T3: Recombinant cynomolgus IL-18 (cynomolgus monkey, UniProt Q14116 37-193 (human entry))
T3 chain: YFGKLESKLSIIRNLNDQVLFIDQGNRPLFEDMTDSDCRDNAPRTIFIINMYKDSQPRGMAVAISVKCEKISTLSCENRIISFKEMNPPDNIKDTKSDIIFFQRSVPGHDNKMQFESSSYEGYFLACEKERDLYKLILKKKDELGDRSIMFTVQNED

T4: Native human IL-18 (human, UniProt Q14116 37-193)
T4 sequence: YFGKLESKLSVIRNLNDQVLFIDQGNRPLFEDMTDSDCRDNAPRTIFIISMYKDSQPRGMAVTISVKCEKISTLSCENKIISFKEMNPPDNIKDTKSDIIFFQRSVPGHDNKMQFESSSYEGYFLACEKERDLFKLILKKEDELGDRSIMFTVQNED


Assays:
Recombinant human IL-18 [1] = target: T1, Recombinant human IL-18; test: solution equilibrium titration (SET), ECL detection
IL-18/IL-18BP complex [2] = target: T2, IL-18/IL-18BP complex; test: ELISA, first set-up: antibody titrated and incubated with the biotinylated human IL-18/rhIL-18BP-Fc complex, captured on NeutrAvidin plate, AP-labelled anti-human F(ab)2, AttoPhos fluorescence [A]
[3] = target: T3, Recombinant cynomolgus IL-18; test: cell-based or functional assay
Recombinant human IL-18 [4] = target: T1, Recombinant human IL-18; test: cell-based or functional assay
Native human IL-18 [5] = target: T4, Native human IL-18; test: cell-based or functional assay
[6] = target: T3, Recombinant cynomolgus IL-18; test: cell-based or functional assay
IL-18/IL-18BP complex [7] = target: T2, IL-18/IL-18BP complex; test: ELISA, second set-up: unbiotinylated human IL-18/rhIL-18BP-Fc complex captured on Maxisorp plate through the Fc tag by goat anti-human IgG Fc, antibody titrated, AttoPhos fluorescence [B]
Recombinant human IL-18 [8] = target: T1, Recombinant human IL-18; test: cell-based or functional assay; remark: listed apart in the source
Native human IL-18 [9] = target: T4, Native human IL-18; test: cell-based or functional assay; remark: listed apart in the source
[10] = target: T3, Recombinant cynomolgus IL-18; test: ratio of SET KD values, cynomolgus against human IL-18
[11] = target: T3, Recombinant cynomolgus IL-18; test: solution equilibrium titration (SET), ECL detection; value in brackets = cynomolgus IL-18; bracketed value
Recombinant human IL-18 [12] = target: T1, Recombinant human IL-18; test: solution equilibrium titration (SET), ECL detection; human IL-18; unbracketed value, column Hu IL-18
Recombinant human IL-18 [13] = target: T1, Recombinant human IL-18; test: cell-based or functional assay; remark: listed apart in the source
Native human IL-18 [14] = target: T4, Native human IL-18; test: cell-based or functional assay; remark: listed apart in the source

Binder | Kd (Recombinant human IL-18 [1]) [nM] | binding result (IL-18/IL-18BP complex [2]) | IC50, inhibition of IFN-γ release, KG-1 cells, Cyno IL-18 [3] [nM] | IC50, inhibition of IFN-γ release, KG-1 cells, Hu IL-18 (1 nM) (Recombinant human IL-18 [4]) [nM] | IC50, inhibition of IFN-γ release, PBMC, Hu IL-18 (recombinant) (Recombinant human IL-18 [4]) [nM] | IC50, inhibition of IFN-γ release, PBMC, Native IL-18 (LPS/IL-12) (Native human IL-18 [5]) [nM] | IC50, inhibition of IFN-γ production, cynomolgus whole blood, recombinant cynomolgus IL-18 (7 nM) [6] [nM] | binding result (IL-18/IL-18BP complex [7]) | IC50, inhibition of IFN-γ release, human whole blood, recombinant human IL-18 (7 nM) (Recombinant human IL-18 [8]) [nM] | IC50, inhibition of IFN-γ release, human whole blood, LPS/IL-12 (native IL-18) (Native human IL-18 [9]) [nM] | fold weaker than against human IL-18 [10] [fold] | Kd [11] [nM] | Kd (Recombinant human IL-18 [12]) [nM] | IC50, inhibition of IFN-γ release, KG-1 cells, Hu IL-18 (1 nM) (Recombinant human IL-18 [13]) [nM] | IC50, inhibition of IFN-γ release, PBMC, Native IL-18 (LPS/IL-12) (Native human IL-18 [14]) [nM]
MOR08775 (antibody, human IgG1, lambda, V domains shown, also called MOR8775) VH: QVQLVQSGAEVKKPGSSVKVSCKASGGTFNSYAISWVRQAPGQGLEWMGGIIPIYGTANYAQKFQGRVTITADESTSTAYMELSSLRSEDTAVYYCARAAYHPLVFDNWGQGTLVTVSS VL: DIVLTQPPSVSGAPGQRVTISCSGSSSNIGNHYVNWYQQLPGTAPKLLIYRNNHRPSGVPDRFSGSKSGTSASLAITGLQSEDEADYYCQSWDYSGFSTVFGGGTKLTVLG | 0.065 | no binding (tested: about 800 nM) | 22 | 68 | 9.2 | 0.7 | – | – | – | – | – | – | – | – | –
MOR09464 (antibody, human IgG1, lambda, L234A L235A, V domains shown, also called MOR9464) VH: EVQLVQSGAEVKKPGSSVKVSCKASGGTFNSYAISWVRQAPGQGLEWMGNIIPMTGQTYYAQKFQGRVTITADESTSTAYMELSSLRSEDTAVYYCARAAYHPLVFDNWGQGTLVTVSS VL: DIVLTQPPSVSGAPGQRVTISCSGSSSNIGNHYVNWYQQLPGTAPKLLIYRNNHRPSGVPDRFSGSKSGTSASLAITGLQSEDEADYYCQSWDYSGFSTVFGGGTKLTVLG | 0.003 | – | 8.3 | 0.8 | 1.3 | 0.2 | 51 | no binding (tested: about 400 nM) | 3.6 | 9.8 | – | – | – | – | –
MOR9464_N30K (antibody, human IgG1, lambda, L234A L235A, V domains shown, also called MOR09464_N30K) VH: EVQLVQSGAEVKKPGSSVKVSCKASGGTFKSYAISWVRQAPGQGLEWMGNIIPMTGQTYYAQKFQGRVTITADESTSTAYMELSSLRSEDTAVYYCARAAYHPLVFDNWGQGTLVTVSS VL: DIVLTQPPSVSGAPGQRVTISCSGSSSNIGNHYVNWYQQLPGTAPKLLIYRNNHRPSGVPDRFSGSKSGTSASLAITGLQSEDEADYYCQSWDYSGFSTVFGGGTKLTVLG | – | – | 4.7 | 0.36 | – | 0.2 | – | – | 8.62 | 17.1 | 10 | 0.02 | 0.002 | 0.36 | 0.2
MOR09441 (antibody, human IgG1, lambda, L234A L235A, V domains shown, also called MOR9441) VH: EVQLVQSGAEVKKPGSSVKVSCKASGGTFNSYAISWVRQAPGQGLEWMGWINPFYIGETFYAQKFQGRVTITADESTSTAYMELSSLRSEDTAVYYCARAAYHPLVFDNWGQGTLVTVSS VL: DIVLTQPPSVSGAPGQRVTISCSGSSSNIGNHYVNWYQQLPGTAPKLLIYRNNHRPSGVPDRFSGSKSGTSASLAITGLQSEDEADYYCQSWDYSGFSTVFGGGTKLTVLG | 0.001 | – | 16.4 | 0.6 | 2.5 | 0.45 | 110 | no binding (tested: about 400 nM) | 8 | 16.3 | – | – | – | – | –
MOR08776 (antibody, human IgG1, lambda, V domains shown, also called MOR8776) VH: QVQLQESGPGLVKPGETLSLTCTVSGGSISTGSYYWNWIRQAPGKGLEWIGEINHMGITYYNPSLKGRVTISVDTSKNQFSLKLSSVTAEDTAVYYCARTTRYWMSHILAYGMDYWGQGTLVTVSS VL: DIVLTQPPSVSGAPGQRVTISCSGSSSNIGNHYVSWYQQLPGTAPKLLIYANTKRPSGVPDRFSGSKSGTSASLAITGLQSEDEADYYCSSYDGSQSIVFGGGTKLTVLG | 0.038 | no binding (tested: about 800 nM) | – | 18 | 50.8 | 5.9 | – | – | – | – | – | – | – | – | –
